# Data: IntAct's records for PubMed 12473693
# B1: Vinculin (Gallus gallus (Chicken)), P12003-1 (parent)
# chain: MPVFHTRTIESILEPVAQQISHLVIMHEEGEVDGKAIPDLTAPVSAVQAAVSNLVRVGKETVQTTEDQILKRDMPPAFIKVENACTKLVRAAQMLQADPYSVPARDYLIDGSRGILSGTSDLLLTFDEAEVRKIIRVCKGILEYLTVAEVVETMEDLVTYTKNLGPGMTKMAKMIDERQQELTHQEHRVMLVNSMNTVKELLPVLISAMKIFVTTKNTKSQGIEEALKNRNFTVEKMSAEINEIIRVLQLTSWDEDAWASKDTEAMKRALALIDSKMNQAKGWLRDPNAPPGDAGEQAIRQILDEAGKAGELCAGKERREILGTCKTLGQMTDQLADLRARGQGATPMAMQKAQQVSQGLDLLTAKVENAARKLEAMTNSKQAIAKKIDAAQNWLADPNGGSEGEEHIRGIMSEARKVAELCEEPKERDDILRSLGEISALTAKLSDLRRHGKGDSPEARALAKQIATSLQNLQSKTNRAVANTRPVKAAVHLEGKIEQAQRWIDNPTVDDRGVGQAAIRGLVAEGRRLANVMMGPYRQDLLAKCDRVDQLAAQLADLAARGEGESPQARAIAAQLQDSLKDLKARMQEAMTQEVSDVFSDTTTPIKLLAVAATAPSDTPNREEVFEERAANFENHAARLGATAEKAAAVGTANKTTVEGIQATVKSARELTPQVVSAARILLRNPGNQAAYEHFETMKNQWIDNVEKMTGLVDEAIDTKSLLDASEEAIKKDLDKCKVAMANMQPQMLVAGATSIARRANRILLVAKREVENSEDPKFREAVKAASDELSKTISPMVMDAKAVAGNISDPGLQKSFLDSGYRILGAVAKVREAFQPQEPDFPPPPPDLEHLHLTDELAPPKPPLPEGEVPPPRPPPPEEKDEEFPEQKAGEAINQPMMMAARQLHDEARKWSSKGNDIIAAAKRMALLMAEMSRLVRGGSGNKRALIQCAKDIAKASDEVTRLAKEVAKQCTDKRIRTNLLQVCERIPTISTQLKILSTVKATMLGRTNISDEESEQATEMLVHNAQNLMQSVKETVREAEAASIKIRTDAGFTLRWVRKTPWYQ
# Variants of: B1
# Conditions: with arpc2_mouse Arpc2, Q9CVB6
row,effect of a mutation on the interaction,Variant
1,disrupting interaction,P878A
